Data from PMC10350030 (bioRxiv, 2023).

How the values were obtained:
[1] = Fluorescence spectra of FAM-Aβ42 during incubation in PBS; format: physicochemical; details: PBS buffer, 0 to 60 minutes, in the presence of CP
[2] = molecular target: biotinylated-Aβ42 (Homo sapiens, UniProt P05067); assay: Single-molecule TIRF imaging of Cy3-CP on immobilized biotinylated Aβ42; format: binding
[3] = molecular target: Aβ42 (Homo sapiens, UniProt P05067); assay: Fluorescence polarization; format: binding; details: read-out: apparent Kd for the Aβ42/CP interaction; fluorescence polarization of FAM-Aβ42 with increasing concentrations of CP
Aβ42, sequence (P05067 672-713, one chain of several): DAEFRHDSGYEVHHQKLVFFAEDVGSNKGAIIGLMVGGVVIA

biotinylated-Aβ42, sequence (P05067 672-713): as the sequence (P05067 672-713, one chain of several) above

TIRF image brightness of CP/Aβ versus CP alone ([2]; Cy3-labeled CP, imaging for 10 minutes): much higher
half-lifetime of stable binding ([2]; TIRF, 100 nM CP-Cy3, no Vc): ~62.3 s
half-lifetime of transient binding ([2]; TIRF, 100 nM CP-Cy3, no Vc): about 14.6 s
stable K(slow) of CP/Aβ binding ([2]; TIRF, 100 nM CP-Cy3, no Vc, unit not given): about 0.011
half-lifetime of stable binding with Vc ([2]; TIRF, 100 nM CP-Cy3 with 250 μM Vc): 39.0 s
Kd [3]: 123 ± 6.7 nM
B1: ceruloplasmin (protein)
chain: KEKHYYIGIIETTWDYASDHGEKKLISVDTEHSNIYLQNGPDRIGRLYKKALYLQYTDETFRTTIEKPVWLGFLGPIIKAETGDKVYVHLKNLASRPYTFHSHGITYYKEHEGAIYPDNTTDFQRADDKVYPGEQYTYMLLATEEQSPGEGDGNCVTRIYHSHIDAPKDIASGLIGPLIICKKDSLDKEKEKHIDREFVVMFSVVDENFSWYLEDNIKTYCSEPEKVDKDNEDFQESNRMYSVNGYTFGSLPGLSMCAEDRVKWYLFGMGNEVDVHAAFFHGQALTNKNYRIDTINLFPATLFDAYMVAQNPGEWMLSCQNLNHLKAGLQAFFQVQECNKSSSKDNIRGKHVRHYYIAAEEIIWNYAPSGIDIFTKENLTAPGSDSAVFFEQGTTRIGGSYKKLVYREYTDASFTNRKERGPEEEHLGILGPVIWAEVGDTIRVTFHNKGAYPLSIEPIGVRFNKNNEGTYYSPNYNPQSRSVPPSASHVAPTETFTYEWTVPKEVGPTNADPVCLAKMYYSAVEPTKDIFTGLIGPMKICKKGSLHANGRQKDVDKEFYLFPTVFDENESLLLEDNIRMFTTAPDQVDKEDEDFQESNKMHSMNGFMYGNQPGLTMCKGDSVVWYLFSAGNEADVHGIYFSGNTYLWRGERRDTANLFPQTSLTLHMWPDTEGTFNVECLTTDHYTGGMKQKYTVNQCRRQSEDSTFYLGERTYYIAAVEVEWDYSPQREWEKELHHLQEQNVSNAFLDKGEFYIGSKYKKVVYRQYTDSTFRVPVERKAEEEHLGILGPQLHADVGDKVKIIFKNMATRPYSIHAHGVQTESSTVTPTLPGETLTYVWKIPERSGAGTEDSACIPWAYYSTVDQVKDLYSGLIGPLIVCRRPYLKVFNPRRKLEFALLFLVFDENESWYLDDNIKTYSDHPEKVNKDDEEFIESNKMHAINGRMFGNLQGLTMHVGDEVNWYLMGMGNEIDLHTVHFHGHSFQYKHRGVYSSDVFDIFPGTYQTLEMFPRTPGIWLLHCHVTDHIHAGMETTYTVLQNEDTKSG
effect of CP on the fluorescence intensity decrease of FAM-Aβ42 [1]: considerably attenuated
